This is an account of results in paper PMC7591920, “A protein tertiary structure mimetic modulator of the Hippo signalling pathway” (Nature Communications, 2020).

For orientation: Kd means a measure of binding affinity in units of concentration. A high value points to weaker binding.

Holding throughout (experiment): SPR; GST-hTEAD1 and mTEAD4 covalently tethered (NHS/EDC) on CM5 chips, 2000–3000 RU; peptides as analytes, threefold dilutions, typically 30 µM top concentration; 10 mM HEPES, 150 mM NaCl, 0.05% Tween-20, pH 7.4, 0.3% DMSO, 20 °C; steady-state fit, 1:1 model
Assay [1] addresses GST-hTEAD1(209–426) (human), P28347.
Assay [2] has as its target T1, mouse TEAD4(210–427), as purified (SPR) (mouse), Q62296.
T1 chain: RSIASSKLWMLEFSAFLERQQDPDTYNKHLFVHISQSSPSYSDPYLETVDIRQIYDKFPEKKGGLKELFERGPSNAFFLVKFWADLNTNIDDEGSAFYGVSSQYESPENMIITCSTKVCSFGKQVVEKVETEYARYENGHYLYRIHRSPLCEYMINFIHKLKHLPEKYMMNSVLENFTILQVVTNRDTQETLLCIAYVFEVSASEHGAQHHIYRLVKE

The target in assay [3] is GST-hTEAD1(209–426) (human) (UniProt P28347).

B1: isolated helix peptide 5 derived from the VGL4 two-helix motif 4, Q80V24 203-256 (peptide)
chain: SVDDHFAKALG
modifications: not checked
For the molecule B1, the Kd in assay [1] and in assay [2] was more than 100 µM in each case.

B2: isolated helix peptide 6 derived from the VGL4 two-helix motif 4, Q80V24 203-256 (peptide)
chain: DTWLQIKAA
modifications: not checked
Consider B2, for which the Kd in assay [1] and in assay [2] was more than 100 µM throughout.

B3: VGL4 C-terminal two-helix motif peptide (peptide 4, helices α2/α3), Q80V24 203-256 (peptide)
chain: SVDDHFAKALGDTWLQIKAA
modifications: not checked
Take B3: the Kd in assay [1] turned out to be 4.3 µM; in assay [2], 3.1 µM.

B4: VGL4 N-terminal α-helix peptide (peptide 2, helix α1), Q80V24 203-256 (peptide)
chain: DPVVEEHFRRSLGKNY
modifications: not checked
For B4, the Kd in assay [1] was 19.4 µM; in assay [2], 21.8 µM.

B5: VGL4 intervening extended stretch peptide (peptide 3), Q80V24 203-256 (peptide)
chain: KEPEPAPNSVSITG
modifications: not checked
For B5, the Kd in assay [1] and in assay [2] was more than 100 µM in each case.

B6: VGL4(203–256), full-length VGL4-derived TEAD binding sequence (peptide 1) (peptide)
peptide: DPVVEEHFRRSLGKNYKEPEPAPNSVSITGSVDDHFAKALGDTWLQIKAAKDSA
Consider B6, for which, in assay [3], the Kd worked out at 1.4 µM.
